Experimental data from article PMC6882875.

How the values were obtained:
Test in all cases: EMSA
Settings in all cases: EMSA: binding buffer stock 80 mM Tris-HCl pH 8.0, 20 mM MgCl2, 2 mM DTT, 4 mM EDTA, 400 mM KCl, 40% glycerol (final dilution not stated); poly(dI-dC) …
[1] = system: MalR1 (Bifidobacterium breve UCC2003)
[2] = system: AraQ (Bifidobacterium breve UCC2003)
[3] = system: T1, MalR1 (Bifidobacterium breve UCC2003), ORF:82221dfa
T1 sequence: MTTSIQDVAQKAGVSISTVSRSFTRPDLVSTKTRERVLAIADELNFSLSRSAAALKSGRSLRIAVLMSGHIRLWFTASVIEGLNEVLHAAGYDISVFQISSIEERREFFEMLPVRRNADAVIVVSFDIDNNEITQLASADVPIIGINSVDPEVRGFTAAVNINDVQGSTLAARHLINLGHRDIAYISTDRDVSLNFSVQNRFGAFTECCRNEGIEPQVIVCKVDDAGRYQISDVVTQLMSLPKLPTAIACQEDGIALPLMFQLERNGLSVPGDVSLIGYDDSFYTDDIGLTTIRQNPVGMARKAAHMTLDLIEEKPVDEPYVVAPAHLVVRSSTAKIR

[4] = system: T2, AraQ (Bifidobacterium breve UCC2003), ORF:c628000b
T2 sequence: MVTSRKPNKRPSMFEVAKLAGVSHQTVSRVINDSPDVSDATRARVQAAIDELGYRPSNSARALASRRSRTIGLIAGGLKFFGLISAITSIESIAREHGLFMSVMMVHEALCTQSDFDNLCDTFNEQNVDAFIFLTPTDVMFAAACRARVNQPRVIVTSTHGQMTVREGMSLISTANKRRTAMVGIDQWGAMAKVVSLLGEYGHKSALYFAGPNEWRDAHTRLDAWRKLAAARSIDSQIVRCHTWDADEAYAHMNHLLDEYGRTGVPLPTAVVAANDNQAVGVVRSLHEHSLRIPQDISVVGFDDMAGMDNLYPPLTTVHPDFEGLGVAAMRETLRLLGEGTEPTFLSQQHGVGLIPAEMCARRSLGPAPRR

| Substance | binding signal [1] | binding signal [2] | binding signal [3] | binding signal [4] |
| --- | --- | --- | --- | --- |
| Bbr_1420 promoter | < 15 % bound | 0 % bound | – | – |
| Bbr_1658 promoter | 0 % bound | 0 % bound | – | – |
| Bbr_1659 promoter | 0 % bound | 0 % bound | – | – |
| Bbr_1841 promoter | 0 % bound | < 15 % bound | – | – |
| Bbr_1894 (PTS) promoter | < 15 % bound | – | – | – |
| CATACGCCTCTCGCTTTCGTCATTGGGCCGACGTCACTGCCGGCACAAAACCGCGACACATGTATGCGTCTTGGTCAACGCTGAATCGTCTCATCACTGAAATGATTTAACGTTTAATCACTTGCGTGATTCATAATATATCGTTTAATCACAGGGGTCAATCAGCGTGTCGAGAGCGTTAACAATCGCGTCCTAACGCCATTACCAGCACATCAGAAACACAATATGGCACAAAAAAAGACAAAATATTGGCGGCGAAGGACTATTGAGC (double strand) [rbsA1 promoter] | – | – | binds | 0 % bound |
| CGAATGCCATATCCGTCTCCTCCTTGCGGCTTACTGCAGCGTTAGAAATGCACAATTCAAATGTACCCTTCTTATAACCGACGCCCGCAAGGTCGTGTCATGCGTCAAACTCTTTTACTGCAGACATTTTTGAGGCTTCTGCTGTTTTCGTGGGCTAGCTGACTGGTTCCGGTAGTCGGATGTCGAGTCCGCCGCATCTGAGCATGATC (double strand) [Bbr_1420 promoter] | – | – | < 15 % bound | 0 % bound |
| CGACAGCTTCCTTGCCATGCTGGCCCTCCTTTATTTTCCAACCCTCGGTTTTCCGCATTGTGCAATCTGCATTGTTTGCCTTGCGGAATCTTAGGAAATTATTTTCCTAAAATGTTTTCTTGAGATAAGATTATAGGACGCCAACGTCAGTGTCAACACGGCGGGTCGAGGGTCGCACAACCCGGACCGAACGGCCCACAATGGCGACGTAGCAAGGAACAGAACGCTACGCCCTTGTACACTGATACAGAGGAAAACAGGCAGGAGGGGAGACATGAACATCAGGGACATCGCACGC (double strand) [Bbr_1841 promoter] | – | – | 0 % bound | < 15 % bound |
| CTTCGCCACGTCATACACCGTTGCCCTACGCATGATTCCTACTTTAATCGATTCCGGAGGTCAGCACACGTTCGACCTGAATCTAAAAAAAGTTTTAGTGGCTTTCCTGTCAATCTCGCATGCATACTTCAGGTTACGGGCGCAGCACCCAATAATGGGTACCGCGCCTTAATGACCGCTACACGAGCAGTCTCAGCAACTGGTAAAGCTGCCATAGGCTGCGCACGTTG (double strand) [Bbr_1659 promoter] | – | – | 0 % bound | 0 % bound |
| GATGAGTGCGCGTGAGAAGAAGAAGGCTGCCGTAGAAGCGAAATAATCGGTGCATGGCCGCTCTGCAGATATATGGAGGGCGGTCTGCGAACCGCCGGGAATGGGTTGCCAATCCCGGCGGTTTGTGTATCCGTGGCGCAGTACAGTCGTAAAGGAAGGCAAGGAGGACAACCATGGCGGAAGGTGTACCGAAGTATATTGCGGTTAGGGACAATCTTCGCCAGCGTG (double strand) [gntR promoter] | – | – | 0 % bound | 0 % bound |
| GCGTTCTATCCTTGCACTGAGCCACGAAAGACGGCATTGTGCAAACGATGGCATACTGTGGGATGCGGAATGACAAGACATGTGATACTCTCTGACTGAGAACGTATGCAACAACTGTCTGCCAACGCTGTTACAGAGAGTTCATGCACACGTTTATGCGACGATACCAATCGCGCGGCATAATAAGCACGGGCACTTATCCCGGAAGGAAAGTCAGAATG (double strand) [glgP1 promoter] | – | – | 0 % bound | binds |
| GCTCGCTTTTGCCATGGCAACCTCGCTCATCAACAGTGGATAACAATCCCGCTCAAAAGACAACGTTATCATACCTAAGCGAGCAACATGCACGCCACGCTGTCTATTTAGAAGTGCAACGCCCCTGTTCGTCGGCTAATTCTTGCAGTTCGTCGGTGAATGCCCCGGGCCCCCGGATTCAACTTGTAAGTGCAACGGCTGGTTTCGG (double strand) [malR2 promoter] | – | – | 0 % bound | binds |
| GGTCAAGCTCATCGTGCGGGGCAGCTGTGGGTGCTGATTATTTCTTGAAGAAGGCTAAATAAGGCTTTTGAGACCTCCTGCAGGGGAGTCACTGTTGATGCTGTTTCGTCGTGTCGAATCGGTTCGCGAGTTGACAAACAAAAAACTATGCGCTTAAATATTAATCACAATCTACGCGGTTAGATTGTTGAGAAGTAACAGTTCAAGGAGGAACGAGGAATGAAGCGAAGCATGTTCAAGATGGCGACTGCCATCATCGCCAGTGCGGCTATGCTGACCAG (double strand) [Bbr_1658 promoter] | – | – | 0 % bound | 0 % bound |
| GGTTGTCGTAATCCTCGGTGGAAGGACCGATGGTGTCTACGATCTTGGCTTTACGCATGAATGCCTGCCTATTCTTGTTCTTTTTTGGTTCGAGGCGCGATTGCCTCACTTGCCGCAGCCCAGTCTACTAGCGCAGACCGGCTCATGACAAGTTTATTCCCCGGTGTGTTGTGAGCGCTCACACTGTTGCGCCGATTGGGTTTTGAGGGGTTGATTTCCCTATGATTTCAGGCCTTCTCAGCG (double strand) [pyk promoter] | – | – | binds | binds |
| agl3 promoter | 0 % bound | 0 % bound | – | – |
| cldE promoter | – | 0 % bound | – | – |
| cldR promoter | 0 % bound | 0 % bound | – | – |
| glgP1 promoter | 0 % bound | – | – | – |
| glgP2 promoter | 0 % bound | 0 % bound | – | – |
| gntR promoter | 0 % bound | 0 % bound | – | – |
| malE promoter | 0 % bound | – | – | – |
| malG2 (F2) promoter | 0 % bound | – | – | – |
| malQ promoter | 0 % bound | < 15 % bound | – | – |
| malR2 promoter | 0 % bound | – | – | – |
| malR3/apuB intergenic region | < 15 % bound | < 15 % bound | – | – |
| malR5/malE2 intergenic region | < 15 % bound | < 15 % bound | – | – |
| nrdH promoter | 0 % bound | – | – | – |
| rbsA1 promoter | – | 0 % bound | – | – |
